To fix the notation:
B1: FAM164A (parent)
chain: YDPDYIQCPYCQRRFNENAADRHI
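Further: lentivirally expressed fusions sorted by FACS into six bins by GFP to DsRed ratio, PSI derived from sequencing read proportions per bin multiplied by bin number.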

This data set covers variants of B1. Description: protein stability index of a GFP-peptide fusion (GPS, HEK-293T) (PSI 1-6); higher = more stable. The conditions noted are these: c terminus: a fixed tail appended.
Regarding EDPDYIQCPYCQRRFNENAADRHI [Y1E], the protein stability index was 5.12.
PDPDYIQCPYCQRRFNENAADRHI [Y1P]: the protein stability index was determined as 4.54.
Take QDPDYIQCPYCQRRFNENAADRHI [Y1Q]: the protein stability index came to 4.55.
GDPDYIQCPYCQRRFNENAADRHI [Y1G]: the protein stability index came to 4.17.
With YDPDYIQCRYCQRRFNENAADRHI [P9R], the protein stability index was 2.58.
The value for YDPDYIQRPYCQRRFNENAADRHI [C8R] was 3.12; that for YDPDYIQGPYCQRRFNENAADRHI [C8G] was 3.81; that for YDPDYIQDPYCQRRFNENAADRHI [C8D] was 4.24.
The value for YDPDYIQTPYCQRRFNENAADRHI [C8T] was 4.23.
For YDPDYIQAPYCQRRFNENAADRHI [C8A], the protein stability index was 3.88.
The value for YDPDYIQNPYCQRRFNENAADRHI [C8N] was 3.65; that for YDPDYDQCPYCQRRFNENAADRHI [I6D] was 3.6.
As for YDPDYWQCPYCQRRFNENAADRHI [I6W], the protein stability index stood at 2.8.
The value for YDPDYVQCPYCQRRFNENAADRHI [I6V] was 4.14; that for YDPDYAQCPYCQRRFNENAADRHI [I6A] was 3.58; that for YDPDYQQCPYCQRRFNENAADRHI [I6Q] was 4.03.
Take YDPDYGQCPYCQRRFNENAADRHI [I6G]: the protein stability index was 3.29.
The value for YPPDYIQCPYCQRRFNENAADRHI [D2P] was 3.64.
To YNPDYIQCPYCQRRFNENAADRHI [D2N] belongs 4.26; to YKPDYIQCPYCQRRFNENAADRHI [D2K], 4.37.
On to YYPDYIQCPYCQRRFNENAADRHI [D2Y], for which the protein stability index was found to be 3.71.
YTPDYIQCPYCQRRFNENAADRHI [D2T]: the protein stability index stood at 2.33.
To YDPDYIQCPYCQRRDNENAADRHI [F15D] belongs 3.17; to YDPDYIQCPYCQRRRNENAADRHI [F15R], 3.59; to YDPDYIQCPYCQRRINENAADRHI [F15I], 4.21.
Consider YDPDYIQCPYCQRRSNENAADRHI [F15S], for which the protein stability index stood at 2.93.
To YDPDYIQCPYCQRRFNEQAADRHI [N18Q] belongs 4.76; to YDPDYIQCPYCQRRFNEEAADRHI [N18E], 4.26.
The value for YDPDYIQCPYCQRRFNEGAADRHI [N18G] was 3.92; that for YDPDYIQCPGCQRRFNENAADRHI [Y10G] was 3.32.
The value for YDPDYIQCPKCQRRFNENAADRHI [Y10K] was 3.66.
As for YDPDYIQCPFCQRRFNENAADRHI [Y10F], the protein stability index was found to be 4.28.
To YDPDYIQCPTCQRRFNENAADRHI [Y10T] belongs 3.56; to YDPDYIQCPYLQRRFNENAADRHI [C11L], 3.13.
To YDPDDIQCPYCQRRFNENAADRHI [Y5D] belongs 4.24; to YDPDAIQCPYCQRRFNENAADRHI [Y5A], 4.05; to YDPDNIQCPYCQRRFNENAADRHI [Y5N], 4.11.
On to YDPDEIQCPYCQRRFNENAADRHI [Y5E], for which the protein stability index turned out to be 4.57.
The value for YDPDIIQCPYCQRRFNENAADRHI [Y5I] was 4.41; that for YDPDYIQCPYCQRRFNENAADYHI [R22Y] was 3.81.
The value for YDPDYIQCPYCQRRFNENAADTHI [R22T] was 4.02.
To YDPDYIQCPYCQRRFNENAADLHI [R22L] belongs 4.08; to YDPDYIQCPYCQRRFNENAMDRHI [A20M], 4.12; to YDPDYIQCPYCQRRFNENANDRHI [A20N], 4.49.
In the case of YDPDYIQCPYCQRRFNENALDRHI [A20L], the protein stability index was 4.25.
The value for YDPDYIQCPYCQRRFNENAYDRHI [A20Y] was 3.78; that for YDPDYIQCPYCQRRFNENAIDRHI [A20I] was 4.37.
The value for YDPDYIQCPYCQGRFNENAADRHI [R13G] was 4.23; that for YDPDYIQCPYCQTRFNENAADRHI [R13T] was 2.41.
To YDPDYIQCPYCQERFNENAADRHI [R13E] belongs 3.07.
YDPDYIQCPYCQHRFNENAADRHI [R13H]: the protein stability index is 3.51.
The value for YDPDYIQCPYCQRRFNTNAADRHI [E17T] was 4.91; that for YDPDYIQCPYCQRRFNANAADRHI [E17A] was 5.13; that for YDPDYIICPYCQRRFNENAADRHI [Q7I] was 4.76.
Consider YDPDYIPCPYCQRRFNENAADRHI [Q7P], for which the protein stability index was 2.88.
To YDPDYIMCPYCQRRFNENAADRHI [Q7M] belongs 3.33; to YDPDYIACPYCQRRFNENAADRHI [Q7A], 3.27.
To YDPDYIECPYCQRRFNENAADRHI [Q7E] belongs 3.87.
To YDPDYIVCPYCQRRFNENAADRHI [Q7V] belongs 4.7.
With YDPDYIFCPYCQRRFNENAADRHI [Q7F], the protein stability index stood at 3.15.
Regarding YDWDYIQCPYCQRRFNENAADRHI [P3W], the protein stability index is 3.5.
For the variant YDTDYIQCPYCQRRFNENAADRHI [P3T], the protein stability index came out at 4.65.
The value for YDGDYIQCPYCQRRFNENAADRHI [P3G] was 4.67.
The value for YDDDYIQCPYCQRRFNENAADRHI [P3D] was 4.01; that for YDPDYIQCPYCQRRFNENAASRHI [D21S] was 4.57; that for YDPDYIQCPYCQRRFNENAAWRHI [D21W] was 3.51.
Regarding YDPDYIQCPYCQRRFNENAATRHI [D21T], the protein stability index was 4.21.
The value for YDPDYIQCPYCQRRFNENAAGRHI [D21G] was 3.9; that for YDPDYIQCPYCQRRFNENAAQRHI [D21Q] was 4.71.
To YDPDYIQCPYCQRRFNENAAERHI [D21E] belongs 4.42.
To YDPDYIQCPYCQRRFNENNADRHI [A19N] belongs 4.37; to YDPDYIQCPYCQRRFNENTADRHI [A19T], 4.51.
Turning to YDPDYIQCPYCQRRFNENQADRHI [A19Q], the protein stability index is 4.37.
The value for YDPDYIQCPYCQRRFNENAADRHE [I24E] was 4.25; that for YDPDYIQCPYCQRRFNENAADRHP [I24P] was 4.25.
On to YDPDYIQCPYCQRRFNENAADRHG [I24G], for which the protein stability index was found to be 4.43.
Take YDPDYIQCPYCQRRFNENAADRHY [I24Y]: the protein stability index stood at 4.01.
The value for YDPDYIQCPYCQRRFLENAADRHI [N16L] was 4.45; that for YDPDYIQCPYCMRRFNENAADRHI [Q12M] was 3.85; that for YDPDYIQCPYCCRRFNENAADRHI [Q12C] was 3.84.
As to YDPDYIQCPYCQRKFNENAADRHI [R14K], the protein stability index was 4.01.
The value for YDPDYIQCPYCQRIFNENAADRHI [R14I] was 4.64; that for YDPDYIQCPYCQRYFNENAADRHI [R14Y] was 4.52.
To YDPAYIQCPYCQRRFNENAADRHI [D4A] belongs 4.26; to YDPNYIQCPYCQRRFNENAADRHI [D4N], 4.22; to YDPYYIQCPYCQRRFNENAADRHI [D4Y], 3.59.
The value for YDPRYIQCPYCQRRFNENAADRHI [D4R] was 3.53; that for YDPMYIQCPYCQRRFNENAADRHI [D4M] was 3.8.
Turning to YDPQYIQCPYCQRRFNENAADRHI [D4Q], the protein stability index amounted to 4.42.
The value for YDPFYIQCPYCQRRFNENAADRHI [D4F] was 3.72; that for YDPIYIQCPYCQRRFNENAADRHI [D4I] was 4.5; that for YDPDYIQCPYCQRRFNENAADRNI [H23N] was 4.15.
The value for YDPDYIQCPYCQRRFNENAADRTI [H23T] was 3.65.
The value for YDPDYIQCPYCQRRFNENAADRGI [H23G] was 4.05.

Source of the values: the supplement of paper PMC10567573.
